Reference: patent publication US20210388087A1 (Chugai, published 2021)
Substitutions are numbered along the chain they refer to. Names may count otherwise.

B1: H183/L072 VH K52bS (antibody, name in Kabat numbering, V domains shown)
VH: QVQLVESGGGLVQPGRSLRLSCAASGFTFSNAWMHWVRQAPGKGLEWVAQIKDSGNAYAAYYAPSVKGRFTISRDDSKNSIYLQMNSLKTEDTAVYYCHYVHYASASTVLPAFGVDAWGQGTTVTVSS
VL: DIVMTQSPLSLPVTPGEPASISCQASQELVHMNRNTYLHWYQQKPGQAPRLLIYKVSNRFPGVPDRFSGSGSGTDFTLKISRVEAEDVGVYYCAQGTSVPFTFGQGTKLEIK
B2: H183/L072 VH N31H (antibody, name in Kabat numbering, V domains shown)
VH: B1 VH with N31H, S54K
VL: B1 VL
B3: H183/L072 VH M34S (antibody, name in Kabat numbering, V domains shown)
VH: B1 VH with M34S, S54K
VL: B1 VL
B4: H183/L072 VH N31A (antibody, name in Kabat numbering, V domains shown)
VH: B1 VH with N31A, S54K
VL: B1 VL
B5: H183/L072 VH N31K (antibody, name in Kabat numbering, V domains shown)
VH: B1 VH with N31K, S54K
VL: B1 VL
B6: H183/L072 VH M34F (antibody, name in Kabat numbering, V domains shown)
VH: B1 VH with M34F, S54K
VL: B1 VL
B7: H183/L072 VH M34W (antibody, name in Kabat numbering, V domains shown)
VH: B1 VH with M34W, S54K
VL: B1 VL
B8: H183/L072 VH K52bY (antibody, name in Kabat numbering, V domains shown)
VH: B1 VH with S54Y
VL: B1 VL
B9: H183/L072 VH L100dA (antibody, name in Kabat numbering, V domains shown)
VH: B1 VH with S54K, L110A
VL: B1 VL
B10: H183/L072 VH M34Y (antibody, name in Kabat numbering, V domains shown)
VH: B1 VH with M34Y, S54K
VL: B1 VL
B11: H183/L072 VH K64A (antibody, name in Kabat numbering, V domains shown)
VH: B1 VH with S54K, K67A
VL: B1 VL
B12: H183/L072 VH K64M (antibody, name in Kabat numbering, V domains shown)
VH: B1 VH with S54K, K67M
VL: B1 VL
B13: H183/L072 VH M34K (antibody, name in Kabat numbering, V domains shown)
VH: B1 VH with M34K, S54K
VL: B1 VL
B14: H183/L072 VH K52bW (antibody, name in Kabat numbering, V domains shown)
VH: B1 VH with S54W
VL: B1 VL
B15: H183/L072 VH M34V (antibody, name in Kabat numbering, V domains shown)
VH: B1 VH with M34V, S54K
VL: B1 VL
B16: H183/L072 VH K52bV (antibody, name in Kabat numbering, V domains shown)
VH: B1 VH with S54V
VL: B1 VL
B17: H183/L072 VH K64L (antibody, name in Kabat numbering, V domains shown)
VH: B1 VH with S54K, K67L
VL: B1 VL
B18: H183/L072 VH N31L (antibody, name in Kabat numbering, V domains shown)
VH: B1 VH with N31L, S54K
VL: B1 VL
B19: H183/L072 VH M34E (antibody, name in Kabat numbering, V domains shown)
VH: B1 VH with M34E, S54K
VL: B1 VL
B20: H183/L072 VH M34Q (antibody, name in Kabat numbering, V domains shown)
VH: B1 VH with M34Q, S54K
VL: B1 VL
B21: H183/L072 VH M34H (antibody, name in Kabat numbering, V domains shown)
VH: B1 VH with M34H, S54K
VL: B1 VL
B22: H183/L072 VH N31I (antibody, name in Kabat numbering, V domains shown)
VH: B1 VH with N31I, S54K
VL: B1 VL
B23: H183/L072 VH N31G (antibody, name in Kabat numbering, V domains shown)
VH: B1 VH with N31G, S54K
VL: B1 VL
B24: H183/L072 VH L100dP (antibody, name in Kabat numbering, V domains shown)
VH: B1 VH with S54K, L110P
VL: B1 VL
B25: H183/L072 VH M34N (antibody, name in Kabat numbering, V domains shown)
VH: B1 VH with M34N, S54K
VL: B1 VL
B26: H183/L072 VH K52bT (antibody, name in Kabat numbering, V domains shown)
VH: B1 VH with S54T
VL: B1 VL
B27: H183/L072 VH M34A (antibody, name in Kabat numbering, V domains shown)
VH: B1 VH with M34A, S54K
VL: B1 VL
B28: H183/L072 VH K64P (antibody, name in Kabat numbering, V domains shown)
VH: B1 VH with S54K, K67P
VL: B1 VL
B29: H183/L072 VH M34P (antibody, name in Kabat numbering, V domains shown)
VH: B1 VH with M34P, S54K
VL: B1 VL
B30: H183/L072 VH N31F (antibody, name in Kabat numbering, V domains shown)
VH: B1 VH with N31F, S54K
VL: B1 VL
B31: H183/L072 VH L100dI (antibody, name in Kabat numbering, V domains shown)
VH: B1 VH with S54K, L110I
VL: B1 VL
B32: H183/L072 VH M34L (antibody, name in Kabat numbering, V domains shown)
VH: B1 VH with M34L, S54K
VL: B1 VL
B33: H183/L072 VH M34D (antibody, name in Kabat numbering, V domains shown)
VH: B1 VH with M34D, S54K
VL: B1 VL
B34: H183/L072 VH K64I (antibody, name in Kabat numbering, V domains shown)
VH: B1 VH with S54K, K67I
VL: B1 VL
B35: H183/L072 VH L100dM (antibody, name in Kabat numbering, V domains shown)
VH: B1 VH with S54K, L110M
VL: B1 VL
B36: H183/L072 VH M34T (antibody, name in Kabat numbering, V domains shown)
VH: B1 VH with M34T, S54K
VL: B1 VL
B37: H183/L072 VH M34I (antibody, name in Kabat numbering, V domains shown)
VH: B1 VH with M34I, S54K
VL: B1 VL
B38: H183/L072 VH N31M (antibody, name in Kabat numbering, V domains shown)
VH: B1 VH with N31M, S54K
VL: B1 VL
B39: H183/L072 VH N31E (antibody, name in Kabat numbering, V domains shown)
VH: B1 VH with N31E, S54K
VL: B1 VL
B40: H183/L072 VH M34R (antibody, name in Kabat numbering, V domains shown)
VH: B1 VH with M34R, S54K
VL: B1 VL
B41: H183/L072 VH N31D (antibody, name in Kabat numbering, V domains shown)
VH: B1 VH with N31D, S54K
VL: B1 VL
B42: H183/L072 VH M34G (antibody, name in Kabat numbering, V domains shown)
VH: B1 VH with M34G, S54K
VL: B1 VL

Target: T1, Human CD3eg linker (human)
T1 construct: Single chain: epsilon and gamma subunits of human CD3 joined by a 29-mer linker, Flag-tag at the C-terminus; also called recombinant human CD3
T1 chain: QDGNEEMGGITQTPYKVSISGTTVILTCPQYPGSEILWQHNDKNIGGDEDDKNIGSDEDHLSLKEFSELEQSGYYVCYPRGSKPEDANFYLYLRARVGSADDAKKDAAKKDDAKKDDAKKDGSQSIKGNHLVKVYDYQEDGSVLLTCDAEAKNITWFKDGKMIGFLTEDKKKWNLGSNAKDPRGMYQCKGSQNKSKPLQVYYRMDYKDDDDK
Assay: Biacore SPR, vs template H183/L072
For B1, the “fold change of affinity” value was 0.7 fold. With B2 the “fold change of affinity” value was 0.3 fold. B3 was tested, and the “fold change of affinity” value was 0 fold. In the case of B4, the “fold change of affinity” value is reported as 0.4 fold. In the case of B5, the “fold change of affinity” value is reported as 0.4 fold. With B6 the “fold change of affinity” value was 0.1 fold. With B7 the “fold change of affinity” value was 0 fold. B8 was tested, and the “fold change of affinity” value was 0.7 fold. With B9 the “fold change of affinity” value was 1.2 fold. In the case of B10, the “fold change of affinity” value is reported as 0 fold. In the case of B11, the “fold change of affinity” value is reported as 1 fold. With B12 the “fold change of affinity” value was 1.1 fold. With B13 the “fold change of affinity” value was 0 fold. B14 was tested, and the “fold change of affinity” value was 0.6 fold. With B15 the “fold change of affinity” value was 0.1 fold. For B16, the “fold change of affinity” value was 0.6 fold. In the case of B17, the “fold change of affinity” value is reported as 1.1 fold. For B18, the “fold change of affinity” value was 0.2 fold. With B19 the “fold change of affinity” value was 0 fold. B20 was tested, and the “fold change of affinity” value was 0 fold. With B21 the “fold change of affinity” value was 0 fold. B22 was tested, and the “fold change of affinity” value was 0.5 fold. In the case of B23, the “fold change of affinity” value is reported as 0.3 fold. B24 was tested, and the “fold change of affinity” value was 1.4 fold. B25 was tested, and the “fold change of affinity” value was 0 fold. B26 was tested, and the “fold change of affinity” value was 0.3 fold. B27 was tested, and the “fold change of affinity” value was 0 fold. For B28, the “fold change of affinity” value was 1.6 fold. B29 was tested, and the “fold change of affinity” value was 0 fold. For B30, the “fold change of affinity” value was 0.5 fold. With B31 the “fold change of affinity” value was 1.2 fold. With B32 the “fold change of affinity” value was 0.7 fold. With B33 the “fold change of affinity” value was 0 fold. For B34, the “fold change of affinity” value was 1 fold. In the case of B35, the “fold change of affinity” value is reported as 1 fold. For B36, the “fold change of affinity” value was 0 fold. With B37 the “fold change of affinity” value was 0.6 fold. With B38 the “fold change of affinity” value was 0.2 fold. With B39 the “fold change of affinity” value was 0 fold. With B40 the “fold change of affinity” value was 0 fold. B41 was tested, and the “fold change of affinity” value was 0.1 fold. B42 was tested, and the “fold change of affinity” value was 0 fold.
